Measured values published in article PMC3679363 (Molecular cell, 2013).

Target: recombinant His-Tip60α ( (human or mouse cDNA cloned), UniProt Q92993 1-513)
Experiment: pull-down

Sequence of recombinant His-Tip60α (Q92993 whole entry): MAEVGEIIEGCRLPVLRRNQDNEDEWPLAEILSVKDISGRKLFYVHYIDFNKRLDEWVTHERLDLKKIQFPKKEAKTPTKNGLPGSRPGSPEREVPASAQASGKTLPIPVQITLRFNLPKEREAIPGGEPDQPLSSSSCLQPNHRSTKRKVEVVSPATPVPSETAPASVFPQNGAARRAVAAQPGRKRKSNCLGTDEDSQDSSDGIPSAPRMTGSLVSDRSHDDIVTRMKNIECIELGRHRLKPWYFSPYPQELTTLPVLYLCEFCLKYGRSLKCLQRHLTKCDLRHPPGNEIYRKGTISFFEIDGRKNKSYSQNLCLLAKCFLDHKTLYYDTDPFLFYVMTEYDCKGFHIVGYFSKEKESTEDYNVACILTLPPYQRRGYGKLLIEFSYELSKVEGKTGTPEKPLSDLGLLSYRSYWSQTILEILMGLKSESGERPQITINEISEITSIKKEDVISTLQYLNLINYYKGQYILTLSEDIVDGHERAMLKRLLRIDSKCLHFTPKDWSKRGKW

binding result: binds
B1: GST-PRAK (enzyme, UniProt Q8IW41 1-473, looked up)
chain: MSEESDMDKAIKETSILEEYSINWTQKLGAGISGPVRVCVKKSTQERFALKILLDRPKARNEVRLHMMCATHPNIVQIIEVFANSVQFPHESSPRARLLIVMEMMEGGELFHRISQHRHFTEKQASQVTKQIALALRHCHLLNIAHRDLKPENLLFKDNSLDAPVKLCDFGFAKIDQGDLMTPQFTPYYVAPQVLEAQRRHQKEKSGIIPTSPTPYTYNKSCDLWSLGVIIYVMLCGYPPFYSKHHSRTIPKDMRRKIMTGSFEFPEEEWSQISEMAKDVVRKLLKVKPEERLTIEGVLDHPWLNSTEALDNVLPSAQLMMDKAVVAGIQQAHAEQLANMRIQDLKVSLKPLHSVNNPILRKRKLLGTKPKDSVYIHDHENGAEDSNVALEKLRDVIAQCILPQAGKGENEDEKLNEVMQEAWKYNRECKLLRDTLQSFSWNGRGFTDKVDRLKLAEIVKQVIEEQTTSHESQ
